Data on two substances can be found in PMC7738341.

Experiment [1] deals with tubulin (microtubules) (human (endogenous in HeLa)) (UniProt P68363). As to the kind of experiment: FRAP; live HeLa cells expressing the CST, 37°C, 5% CO2; EYFP bleached in a circular ROI of 2 μm radius in the cytoplasm; recovery curves fitted by a two-phase exponential association function; the phase with lower mobility is named MTs-bound fraction.
The target is the same in experiment [2].

Sequence of UniProt P68363 (P68363 whole entry, chain 1 of 2): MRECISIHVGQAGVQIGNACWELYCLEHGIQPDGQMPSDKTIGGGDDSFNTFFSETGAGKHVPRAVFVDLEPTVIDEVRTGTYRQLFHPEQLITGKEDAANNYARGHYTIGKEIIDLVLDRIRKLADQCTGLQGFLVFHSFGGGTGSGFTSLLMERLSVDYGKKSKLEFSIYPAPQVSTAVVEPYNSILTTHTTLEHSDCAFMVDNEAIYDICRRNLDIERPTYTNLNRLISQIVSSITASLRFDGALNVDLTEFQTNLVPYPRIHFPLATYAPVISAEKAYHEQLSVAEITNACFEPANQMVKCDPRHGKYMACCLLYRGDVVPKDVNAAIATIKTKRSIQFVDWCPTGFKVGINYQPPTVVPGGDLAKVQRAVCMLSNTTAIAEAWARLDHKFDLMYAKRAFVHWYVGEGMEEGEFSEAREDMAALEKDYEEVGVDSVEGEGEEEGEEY
Sequence of UniProt P68363 (P07437 whole entry, chain 2 of 2, further chain): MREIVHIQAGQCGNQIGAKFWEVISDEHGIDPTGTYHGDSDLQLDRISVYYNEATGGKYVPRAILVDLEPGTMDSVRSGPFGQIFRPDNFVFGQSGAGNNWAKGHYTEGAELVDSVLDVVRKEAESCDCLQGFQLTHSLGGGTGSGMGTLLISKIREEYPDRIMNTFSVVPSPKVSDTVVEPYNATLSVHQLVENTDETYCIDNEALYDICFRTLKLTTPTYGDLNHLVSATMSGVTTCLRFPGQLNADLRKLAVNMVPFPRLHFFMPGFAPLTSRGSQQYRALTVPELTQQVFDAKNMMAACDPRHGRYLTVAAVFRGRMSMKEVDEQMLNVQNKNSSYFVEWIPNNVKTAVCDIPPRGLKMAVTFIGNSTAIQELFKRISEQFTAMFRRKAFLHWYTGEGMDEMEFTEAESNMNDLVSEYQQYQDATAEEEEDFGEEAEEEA

The substance “Conformational Sensitive Tau, wild type (CST^WT) (from UniProt P10636-8 1-441) (natural protein)” had an MTs-bound fraction in experiment [1] of 61%.

Turning to “Conformational Sensitive Tau with the Q336H mutation (CST^Q336H) (from UniProt P10636-8 1-441) (natural protein)”, the FRAP mobile fraction (Mob calc) in live HeLa cells in experiment [2] was 79%.
